Target: Arabidopsis thaliana HAPLESS 2 ectodomain (AtHAP2e; aa 25-494) (Arabidopsis thaliana) (UniProt F4JP36)
Assay: crystal structure; AtHAP2e set to crystallize as a monomer; hanging drop, 293 K, 100 mM sodium citrate pH 4.5, 200 mM zinc acetate; space group P6_(3)

## Arabidopsis thaliana HAPLESS 2 ectodomain (AtHAP2e; aa 25-494) (from UniProt F4JP36 25-494) (domain or fragment)
  stoichiometry N: 3

Source: PMC6089408
